Like-named read-outs stand apart in the source and are kept apart here. Square brackets hold non-standard residues; d marks the D form. Ends that are not written are not given here. * marks the point of attachment. 2Thi = N[C@@H](Cc1cccs1)C(=O)O; Nicotinoyl = O=C(c1cccnc1)*
Key:
[1] = biological target: T1, human angiotensin AT2 receptor (human, UniProt P50052 1-363)
T1 sequence (looked up): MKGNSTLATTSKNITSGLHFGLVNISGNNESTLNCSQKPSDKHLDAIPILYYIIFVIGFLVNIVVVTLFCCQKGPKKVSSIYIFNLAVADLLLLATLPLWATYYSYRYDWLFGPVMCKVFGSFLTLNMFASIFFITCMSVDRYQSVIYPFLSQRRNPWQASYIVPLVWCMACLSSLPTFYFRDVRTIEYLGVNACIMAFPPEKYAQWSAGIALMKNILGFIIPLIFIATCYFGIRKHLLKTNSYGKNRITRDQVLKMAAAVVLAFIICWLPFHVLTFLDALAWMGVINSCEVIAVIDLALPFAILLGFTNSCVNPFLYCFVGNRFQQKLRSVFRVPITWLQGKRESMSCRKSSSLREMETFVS

[2] = biological target: T1, human angiotensin AT2 receptor; remark: listed apart in the source
[3] = biological target: T1, human angiotensin AT2 receptor; remark: listed apart in the source
Method: (§1) Compounds were screened at 10 μM. […] Biochem. Biophys. Res. Comm.

Bradykinin B1 = biological target: T2, Bradykinin B1; assay: receptor panel ligand-binding screen, FPAh at 10 µM
T2 sequence (P46663 whole entry, species assumed, looked up): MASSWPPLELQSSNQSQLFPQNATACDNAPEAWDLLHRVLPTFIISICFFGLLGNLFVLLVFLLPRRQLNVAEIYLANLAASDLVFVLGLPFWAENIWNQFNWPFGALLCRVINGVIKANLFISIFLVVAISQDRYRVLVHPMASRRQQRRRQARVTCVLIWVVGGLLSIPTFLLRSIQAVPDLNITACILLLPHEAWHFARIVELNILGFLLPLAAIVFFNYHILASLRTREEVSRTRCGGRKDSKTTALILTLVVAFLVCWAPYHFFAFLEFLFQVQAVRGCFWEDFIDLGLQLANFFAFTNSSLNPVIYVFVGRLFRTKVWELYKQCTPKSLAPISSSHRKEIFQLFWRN

Cholecystokinin = assay: as above
Estrogen ERa = assay: as above
Glutamate AMPA = assay: as above
[4] = biological target: Inositol Triphosphate IP3; assay: as above
Potassium Channel [Ka] = assay: as above
Serotonin 5-HT 2a = assay: as above
Sequence of Serotonin 5-HT 2a (P28223 whole entry): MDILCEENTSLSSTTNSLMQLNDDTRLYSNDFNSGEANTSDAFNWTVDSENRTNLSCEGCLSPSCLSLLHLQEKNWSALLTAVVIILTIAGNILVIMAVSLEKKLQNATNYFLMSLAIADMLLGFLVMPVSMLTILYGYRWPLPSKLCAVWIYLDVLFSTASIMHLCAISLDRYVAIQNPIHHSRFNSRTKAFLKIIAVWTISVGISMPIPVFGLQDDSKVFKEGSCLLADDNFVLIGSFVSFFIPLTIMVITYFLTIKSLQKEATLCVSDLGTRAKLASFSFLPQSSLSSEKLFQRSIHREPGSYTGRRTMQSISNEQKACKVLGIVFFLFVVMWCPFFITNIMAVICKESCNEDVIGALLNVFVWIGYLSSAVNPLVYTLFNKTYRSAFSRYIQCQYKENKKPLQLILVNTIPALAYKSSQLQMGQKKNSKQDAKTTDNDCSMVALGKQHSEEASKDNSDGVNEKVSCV

[5] = biological target: T3, Thyrotropin Releasing Hormone; assay: as above
T3 sequence (P34981 whole entry, species assumed, looked up): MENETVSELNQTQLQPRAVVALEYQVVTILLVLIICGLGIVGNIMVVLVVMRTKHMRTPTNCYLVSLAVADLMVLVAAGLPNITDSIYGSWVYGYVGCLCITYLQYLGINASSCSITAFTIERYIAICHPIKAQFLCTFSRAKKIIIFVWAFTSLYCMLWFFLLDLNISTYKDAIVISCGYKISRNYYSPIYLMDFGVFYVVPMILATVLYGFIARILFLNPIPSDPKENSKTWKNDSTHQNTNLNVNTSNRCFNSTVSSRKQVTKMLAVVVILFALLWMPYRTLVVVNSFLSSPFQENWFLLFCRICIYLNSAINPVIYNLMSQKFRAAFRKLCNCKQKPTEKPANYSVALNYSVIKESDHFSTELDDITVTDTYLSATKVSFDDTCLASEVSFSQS

[6] = biological target: Vascular endothelial growth factor; assay: as above
[7] = biological target: T1, human angiotensin AT2 receptor; assay: [125I]CGP-42112A binding to membranes of HeLa cells expressing human AT2 receptor
Method: as §1

[8] = biological target: T4, human angiotensin AT2 receptor (human) (UniProt P50052)
T4 sequence (looked up): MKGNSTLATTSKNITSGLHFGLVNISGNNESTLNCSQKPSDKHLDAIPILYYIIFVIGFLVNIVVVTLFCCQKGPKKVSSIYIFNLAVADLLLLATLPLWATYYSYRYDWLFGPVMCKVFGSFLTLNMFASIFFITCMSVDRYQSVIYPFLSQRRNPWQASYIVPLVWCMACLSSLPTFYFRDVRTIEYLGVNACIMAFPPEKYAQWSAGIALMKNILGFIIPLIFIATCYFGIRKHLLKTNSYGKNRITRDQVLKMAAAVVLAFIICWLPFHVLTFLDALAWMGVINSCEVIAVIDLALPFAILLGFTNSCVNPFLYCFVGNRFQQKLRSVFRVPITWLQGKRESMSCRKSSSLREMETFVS

Molecule Saralasin (peptide) has an IC50 [1] of 0.28 nM, a Ki [1] of 0.091 nM and a nH [1] of 0.9.

Molecule Bradykinin (1-3) (peptide) has a % Inhibition ATII receptor [2] of -2%.

“N-Admantaneacetyl-DArg0-Hyp3, Thi5,8,DPhe7] Bradykinin (peptide)” showed a % Inhibition ATII receptor [2] of 61%.

With [Lys0-Hyp3] Bradykinin (peptide) the % Inhibition ATII receptor [2] was 13%.

With “N-Admantanecarbonyl-DArg0-Hyp3, Thi5,8, DPhe7] Bradykinin (peptide)” the % Inhibition ATII receptor [2] was 63%.

For RPPGFSP (also called VP060) [Bradykinin (1-7)], the “% Inhibition ATII receptor” value [3] was 55%.

For XRPXGXSXXR (D-Arg at 0; Hyp at 3; Thi at 5; D-Tic at 7; Oic at 8 (bradykinin numbering)) [Hoe 140], the % Inhibition ATII receptor [2] was 29%.

For ADSGEGDFLAEGGGVR [human form of Fibrinopeptide-A], the % inhibited (ligand-receptor binding) (Bradykinin B1) was 24%, the % inhibited (ligand-receptor binding) (Cholecystokinin) was 33% and the % inhibited (ligand-receptor binding) (Estrogen ERa) was 33%. For the same molecule, the % stimulated (ligand-receptor binding) (Glutamate AMPA) was 30%, the % inhibited (ligand-receptor binding) [4] was 33% and the % inhibited (ligand-receptor binding) (Potassium Channel [Ka]) was 25%. The % stimulated (ligand-receptor binding) (Serotonin 5-HT 2a) was 21%, the % inhibited (ligand-receptor binding) [5] was 23% and the % stimulated (ligand-receptor binding) [6] was 22%.

PPGFSPFR [Bradykinin (2-9)] showed a % Inhibition ATII receptor [2] of -13%.

XRPXGXSXXR (D-Arg at 0; Hyp at 3; Igl at 5; D-Igl at 7; Oic at 8 (bradykinin numbering)) [B9430] was tested, and the % Inhibition ATII receptor [2] was 70%.

For RPPGYSPFR (also called VP053) [Tyr5] Bradykinin], the “% Inhibition ATII receptor” value [3] was 13%.

Molecule RPPG[2Thi]S[dF][2Thi]R [[Thi5,8,DPhe7] Bradykinin] has a % Inhibition ATII receptor [2] of 53%.

B1: CGP-42112A (peptide)
peptide: Nicotinoyl-YKHPI-OH
modifications: not fully specified (residue 2)
notes: Modified peptide ligand of the AT2 receptor and radioligand of the assay; also called CPG42112A
B1 was tested, and the Kd [7] was 0.012 nM, the IC50 [3] was 0.024 nM and the Ki [3] was 0.0078 nM. The nH [3] was 1.1.

RPPGFSPYR [[Tyr8] Bradykinin] gave a % Inhibition ATII receptor [8] of -1%.

In the case of KRPPGFSPFR (also called VP048) [[Lys0] Bradykinin], the “% Inhibition ATII receptor” value [3] is reported as 29%.

With YRPPGFSPFR (also called VP051) [[Tyr0] Bradykinin] the “% Inhibition ATII receptor” value [3] was 33%.

KRPAGFSPFR (also called VP050) [Lys0-Ala3] Bradykinin] was tested, and the “% Inhibition ATII receptor” value [3] was 18%.

For MKRPPGFSPFR (also called VP049) [Met-Lys0] Bradykinin], the “% Inhibition ATII receptor” value [3] was 38%.

XRPXGXSXXR (D-Arg at 0; Hyp at 3; Thi at 5; D-Igl at 7; Oic at 8 (bradykinin numbering)) [B9340] showed a % Inhibition ATII receptor [2] of 35%.

In the case of RPPGFS[dF]FR [[DPhe7] Bradykinin], the % Inhibition ATII receptor [2] is reported as 9%.

Work on RPPGFS [Bradykinin (1-6)] yielded a % Inhibition ATII receptor [2] of -12%.

With RPPGF [Bradykinin (1-5)] the % Inhibition ATII receptor [2] was 1%.

In the case of KRPPGFSPL (also called VP041) [Lys-(Des-Arg9, Leu8)-Bradykinin], the “% Inhibition ATII receptor” value [3] is reported as 98%.

In the case of ISRPPGFSPFR (also called VP054) [Ile-Ser0]-Bradykinin], the “% Inhibition ATII receptor” value [3] is reported as 29%.

PPGFSP [Bradykinin (2-7)] gave a % Inhibition ATII receptor [2] of -6%.
